# According to US20250320312A1 (OXITOPE PHARMA B V, published 2025):
# T1: Peptide 4: Biotin-AGGGGSGGGGSGGGGSAAA-Tyr-acid (N-terminal biotin; C-terminal acid)
# T1 construct: Control peptide without PC
# T1 peptide: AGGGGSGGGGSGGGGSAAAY
# T2: Peptide 8: Biotin-AEAAAKEAAAKEAAAKEAAAKAAA-Tyr-acid (N-terminal biotin; C-terminal acid)
# T2 construct: Control peptide without PC
# T2 peptide: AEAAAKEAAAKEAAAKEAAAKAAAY
# Key:
# Assay in all cases: scFv ELISA
# BSA = BSA (UniProt P02769)
# [1] = molecular target: Peptide 1: Biotin-…-[Tyr(PC)]-acid
# [2] = molecular target: Peptide 5: Biotin-…-[Tyr(PC)]-acid
# [3] = molecular target: T1, Peptide 4: …
# Procedure, shortened: (§1)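 Bound scFv was read as OD450 after HRP–anti-V5 detection, TMB development and HCl stop. PPE with BSA was incubated 1 h at RT on BSA-blocked wells coated overnight at 4° C. with peptide, or on streptavidin wells loaded 1 h with biotinylated PC-peptides at 1 μg/mL.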
# [4] = molecular target: T2, Peptide 8: …
# Procedure, shortened: as §1
# Chain of BSA (P02769 25-607 limits assumed): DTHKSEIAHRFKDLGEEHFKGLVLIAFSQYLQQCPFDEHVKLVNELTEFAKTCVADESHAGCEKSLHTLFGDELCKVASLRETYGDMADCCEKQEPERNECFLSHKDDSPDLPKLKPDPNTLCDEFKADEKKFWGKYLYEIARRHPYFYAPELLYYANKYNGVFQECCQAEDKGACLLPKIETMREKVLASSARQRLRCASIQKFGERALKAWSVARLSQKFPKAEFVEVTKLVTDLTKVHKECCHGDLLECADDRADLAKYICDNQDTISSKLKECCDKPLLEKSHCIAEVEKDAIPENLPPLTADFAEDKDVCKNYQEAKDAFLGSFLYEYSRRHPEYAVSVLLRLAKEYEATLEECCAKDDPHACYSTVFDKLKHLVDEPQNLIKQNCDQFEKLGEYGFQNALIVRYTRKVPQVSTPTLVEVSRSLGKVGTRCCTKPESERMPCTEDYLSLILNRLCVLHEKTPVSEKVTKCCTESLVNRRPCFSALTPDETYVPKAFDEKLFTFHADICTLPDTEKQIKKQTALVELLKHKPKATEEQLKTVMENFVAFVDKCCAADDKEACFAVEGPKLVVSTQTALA
Binder,OD450 (BSA),OD450 [1],OD450 [2],OD450 [3],OD450 [4]
"PcOxP_DB03_B10 (scFv, V domains shown, scFv in periplasmic extract) VH: EVQLLESGGGLVQPGGSLRLSCAASGFTFSDYYMEWVRQAPGKGLEWVAASRNKANDYNTEYADSVKGRFTISRDNSKNTLYLQMNSLRAEDTAVYYCARDYYGSSYWYFDVWGQGTLVTVSS VL: DIVMTQSPDSLAVSLGERATINCTASESLYSSKHKVHYLAWYQQKPGQPPKLLIYGASNRYIGVPDRFSGSGSGTDFTLTISSLQAEDVAVYYCAQFYSYPLTFGGGTKVEIK",0.08 OD450,0.41 OD450,0.71 OD450,0.05 OD450,0.05 OD450
"PcOxP_DB03_C10 (scFv, V domains shown, scFv in periplasmic extract) VH: EVQLLESGGGLVQPGGSLRLSCAASGFTFSSYYMEWVRQAPGKGLEWVAASRNKANEYTTEYADSVKGRFTISRDNSKNTLYLQMNSLRAEDTAVYYCARDYYGSSYWYFDVWGQGTLVTVSS VL: DIVMTQSPDSLAVSLGERATINCTASESLYSSKHKVHYLAWYQQKPGQPPKLLIYGAGNRYIGVPDRFSGSGSGTDFTLTISSLQAEDVAVYYCAQFYSYPLTFGGGTKVEIK",0.07 OD450,1.1 OD450,1.1 OD450,0.05 OD450,0.04 OD450
"PcOxP_DB03_B12 (scFv, V domains shown, scFv in periplasmic extract) VH: EVQLLESGGGLVQPGGSLRLSCAASGFQFSDFYMEWVRQAPGKGLEWVAASRWKANDYTTEYADSVKGRFTISRDNSKNTLYLQMNSLRAEDTAVYYCARDYYGSSYWYFDVWGQGTLVTVSS VL: DIVMTQSPDSLAVSLGERATINCTASESLYSSKHKVHYLAWYQQKPGQPPKLLIYGASNRYIGVPDRFSGSGSGTDFTLTISSLQAEDVAVYYCAQFYSYPLTFGGGTKVEIK",0.06 OD450,1.21 OD450,0.85 OD450,0.05 OD450,0.05 OD450
"PcOxP_DB03_C04 (scFv, V domains shown, scFv in periplasmic extract) VH: EVQLLESGGGLVQPGGSLRLSCAASGFTFSDFYMEWVRQAPGKGLEWVAASRNKANDYTTEYADSVKGRFTISRDNSKNTLYLQMNSLRAEDTAVYYCARDYYGSSYWYNDVWGQGTLVTVSS VL: DIVMTQSPDSLAVSLGERATINCTASESLYSSKHKVHYLAWYQQKPGQPPKLLIYGASNRYIGVPDRFSGSGSGTDFTLTISSLQAEDVAVYYCAQFYTYPLTFGGGTKVEIK",0.07 OD450,2.11 OD450,1.72 OD450,0.04 OD450,0.04 OD450
"PcOxP_DB03_B11 (scFv, V domains shown, scFv in periplasmic extract) VH: EVQLLESGGGLVQPGGSLRLSCAASGFTFSDFYVEWVRQAPGKGLEWVAASRNKANTYTTEYADSVKGRFTISRDNSKNTLYLQMNSLRAEDTAVYYCARDYYGSSYWYFDVWGQGTLVTVSS VL: DIVMTQSPDSLAVSLGERATINCTASESLYSSKHKVHYLAWYQQKPGQPPKLLIYGAQNRYIGVPDRFSGSGSGTDFTLTISSLQAEDVAVYYCGQFYSYPLTFGGGTKVEIK",0.07 OD450,0.5 OD450,0.72 OD450,0.05 OD450,0.05 OD450
"PcOxP_DB03_D02 (scFv, V domains shown, scFv in periplasmic extract) VH: EVQLLESGGGLVQPGGSLRLSCAASGFTFSDYYMEWVRQAPGKGLEWVAASRNKANDYTTEYADSVKGRFTISRDNSKNTLYLQMNSLRAEDTAVYYCARDYYGSSYWYFDVWGQGTLVTVSS VL: DIVMTQSPDSLAVSLGERATINCTASESLYSSKHKVHYLAWYQQKPGQPPKLLIYGATNRYIGVPDRFSGSGSGTDFTLTISSLQAEDVAVYYCAEFYSYPLTFGGGTKVEIK",0.09 OD450,0.67 OD450,1.37 OD450,0.05 OD450,0.04 OD450
"PcOxP_DB03_C01 (scFv, V domains shown, scFv in periplasmic extract) VH: EVQLLESGGGLVQPGGSLRLSCAASGFTFSDFYMEWVRQAPGKGLEWVAASRNKANDYTTEVADSVKGRFTISRDNSKNTLYLQMNSLRAEDTAVYYCARDYYGSSNWYFDVWGQGTLVTVSS VL: DIVMTQSPDSLAVSLGERATINCTASESLYSSKIKVHYLAWYQQKPGQPPKLLIYGAHNRYIGVPDRFSGSGSGTDFTLTISSLQAEDVAVYYCAQFYSYPLTFGGGTKVEIK",0.08 OD450,0.84 OD450,1.47 OD450,0.05 OD450,0.05 OD450
"PcOxP_DB03_C08 (scFv, V domains shown, scFv in periplasmic extract) VH: EVQLLESGGGLVQPGGSLRLSCAASGSTFSDFYMEWVRQAPGKGLEWVAASRNKANDFTTEYADSVKGRFTISRDNSKNTLYLQMNSLRAEDTAVYYCARDYYGSSYWYFDVWGQGTLVTVSS VL: DIVMTQSPDSLAVSLGERATINCTASESLYSSKHKVHYLAWYQQKPGQPPKLLIYGASNRYSGVPDRFSGSGSGTDFTLTISSLQAEDVAVYYCAQFYHYPLTFGGGTKVEIK",0.06 OD450,0.98 OD450,0.9 OD450,0.05 OD450,0.05 OD450

# Further lines, results first:
OD450 (BSA),OD450 [1],OD450 [2],OD450 [3],OD450 [4],Binder
0.05 OD450,0.27 OD450,0.79 OD450,0.04 OD450,0.04 OD450,"PcOxP_DB03_E03 (scFv, V domains shown, scFv in periplasmic extract) VH: EVQLLESGGGLVQPGGSLRLSCAASGFTESDFYMEWVRQAPGKGLEWVAASRNKANDYTTEYADSVKGRFTISRDNSKNTLYLQMNSLRAEDTAVYYCARDYYGSSYWYFDVWGQGTLVTVSS VL: DIVMTQSPDSLAVSLGERATINCKSSQSLLYSKNNVNYLAWYQQKPGQPPKLLIYGESNRYIGVPDRFSGSGSGTDFTLTISSLQAEDVAVYYCAQFYEYPLTFGGGTKVEIK"
0.06 OD450,0.57 OD450,0.88 OD450,0.06 OD450,0.06 OD450,"PcOxP_DB03_E12 (scFv, V domains shown, scFv in periplasmic extract) VH: EVQLLESGGGLVQPGGSLRLSCAASGETFSDFYMEWVRQAPGKGLEWVAASRNKWNDYTTEYADSVKGRFTISRDNSKNTLYLQMNSLRAEDTAVYYCARDYYGSSYWYFDVWGQGTLVTVSS VL: DIVMTQSPDSLAVSLGERATINCTASESLYSSKHKVNYLAWYQQKPGQPPKLLIYGASNRYIGVPDRFSGSGSGTDFTLTISSLQAEDVAVYYCAQFYSYPLTFGGGTKVEIK"
0.06 OD450,0.2 OD450,0.3 OD450,0.04 OD450,0.04 OD450,"PcOxP_DB03_D12 (scFv, V domains shown, scFv in periplasmic extract) VH: EVQLLESGGGLVQPGGSLRLSCAASGFTNSDFYMEWVRQAPGKGLEWVAASRNKANDYTTELADSVKGRFTISRDNSKNTLYLQMNSLRAEDTAVYYCARDYYGSSYWYFDVWGQGTLVTVSS VL: DIVMTQSPDSLAVSLGERATINCTASESLYSSKHKVHYLAWYQQKPGQPPKLLIYGASNRYIGVPDRFSGSGSGTDFTLTISSLQAEDVAVYYCAQFYSYPLTFGGGTKVEIK"
0.08 OD450,1.13 OD450,1.93 OD450,0.05 OD450,0.05 OD450,"PcOxP_DB03_F03 (scFv, V domains shown, scFv in periplasmic extract) VH: EVQLLESGGGLVQPGGSLRLSCAASGFTFSDQYMEWVRQAPGKGLEWVAASRNKNNDYTTEYADSVKGRFTISRDNSKNTLYLQMNSLRAEDTAVYYCARDYYGASYWYFDVWGQGTLVTVSS VL: DIVMTQSPDSLAVSLGERATINCTASQSVYSSKHKKHYLAWYQQKPGQPPKLLIYGANNRYIGVPDRFSGSGSGTDFTLTISSLQAEDVAVYYCGQFYSYPLTFGGGTKVEIK"
0.07 OD450,1.56 OD450,1.68 OD450,0.05 OD450,0.05 OD450,"PcOxP_DB03_F02 (scFv, V domains shown, scFv in periplasmic extract) VH: EVQLLESGGGLVQPGGSLRLSCAASGFTFSSYYMEWVRQAPGKGLEWVAASRNKANDYTTEYADSVKGRFTISRDNSKNTLYLQMNSLRAEDTAVYYCARDYYDSSYWYFDVWGQGTLVTVSS VL: DIVMTQSPDSLAVSLGERATINCTSSESLLSSKHKVHYLAWYQQKPGQPPKLLIYGASNRYTGVPDRFSGSGSGTDFTLTISSLQAEDVAVYYCAQFYSYPLTFGGGTKVEIK"
0.08 OD450,0.96 OD450,1.2 OD450,0.06 OD450,0.04 OD450,"PcOxP_DB03_E04 (scFv, V domains shown, scFv in periplasmic extract) VH: EVQLLESGGGLVQPGGSLRLSCAASGFTFSSYYMEWVRQAPGKGLEWVAASRNKANDYTTEYADSVKGRFTISRDNSKNTLYLQMNSLRAEDTAVYYCARDYYGSSYWYFDVWGQGTLVTVSS VL: DIVMTQSPDSLAVSLGERATINCTASESLYSSKHKVHYLAWYQQKPGQPPKLLIYGASNRYLGVPDRFSGSGSGTDFTLTISSLQAEDVAVYYCAQFYSYPLTFGGGTKVEIK"
0.07 OD450,1.4 OD450,1.58 OD450,0.05 OD450,0.04 OD450,"PcOxP_DB03_E11 (scFv, V domains shown, scFv in periplasmic extract) VH: EVQLLESGGGLVQPGGSLRLSCAASGFTFSDGYMEWVRQAPGKGLEWVAASRNKANDYTTEYADSVKGRFTISRDNSKNTLYLQMNSLRAEDTAVYYCARDYYGSSYWYFDVWGQGTLVTVSS VL: DIVMTQSPDSLAVSLGERATINCKSSESLYSSKNKVHYLAWYQQKPGQPPKLLIYGASNRYIGVPDRFSGSGSGTDFTLTISSLQAEDVAVYYCAQFYHYPLTFGGGTKVEIK"
0.1 OD450,0.73 OD450,1.11 OD450,0.04 OD450,0.04 OD450,"PcOxP_DB03_D03 (scFv, V domains shown, scFv in periplasmic extract) VH: EVQLLESGGGLVQPGGSLRLSCAASGFTFSDYYMEWVRQAPGKGLEWVAASRNKANDYTTEYADSVKGRFTISRDNSKNTLYLQMNSLRAEDTAVYYCARDYYFSSYWYFDVWGQGTLVTVSS VL: DIVMTQSPDSLAVSLGERATINCTASESLYSSKHKVHYLAWYQQKPGQPPKLLIYGASNRYIGVPDRFSGSGSGTDFTLTISSLQAEDVAVYYCAQFYSYPLTFGGGTKVEIK"
0.06 OD450,1.19 OD450,1.41 OD450,0.05 OD450,0.06 OD450,"PcOxP_DB03_D10 (scFv, V domains shown, scFv in periplasmic extract) VH: EVQLLESGGGLVQPGGSLRLSCAASGFTTSDFYMEWVRQAPGKGLEWVAASRNKANGYTTEYADSVKGRFTISRDNSKNTLYLQMNSLRAEDTAVYYCARDYYGSSYWYFDVWGQGTLVTVSS VL: DIVMTQSPDSLAVSLGERATINCTASESLYSSKHKVHYLAWYQQKPGQPPKLLIYGASGRYIGVPDRFSGSGSGTDFTLTISSLQAEDVAVYYCAQFYSYPLTFGGGTKVEIK"
